From the supplement of paper PMC10266784

B1: library; numbered along this chain (parent)
chain: MAAAAAAAAEQQSSNGPVKKSMREKAVERRSVNKEHNSNFKAGYIPIDEDRLHKTGLRGRKGNLAICVIILLFILAVINLIITLVIWAVIRIGPNGCDSMEFHESGLLRFKQVSDMGVIHPLYKSTVGGRRNENLVITGNNQPIVFQQGTTKLSVENNKTSITSDIGMQFFDPRTQNILFSTDYETHEFHLPSGVKSLNVQKASTERITSNATSDLNIKVDGRAIVRGNEGVFIMGKTIEFHMGGNMELKAENSIILNGSVMVSTTRLPSSSSGDQLGSGDWVRYKLCMCADGTLFKVQVTSQNMGCQISDNPCGNTH

Variants of: B1
Experiment: SGCB cell-surface expression functional score (HA stain, bin4 vs bin1, normalised to synonymous) (log10 ratio); higher = more cell-surface SGCB (functional)
Method in brief: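 HEK293 cells stably expressing alpha-, gamma- and delta-sarcoglycan received codon-saturation libraries of HA-tagged, YFP-fused human beta-sarcoglycan by lentiviral transduction at MOI <0.1, performed in duplicate. Cells positive for YFP were sorted after 72 hours and cultured for 5–7 days, then stained on ice with Alexa Fluor 647 anti-HA and fixed. Fixed cells were sorted into four 5% intensity bins and amplicon-sequenced, and the log ratio of highest-bin to lowest-bin variant frequency, as a median over codons and transductions, gives the functional score. Per section, synonymous variants were scaled to mean 0, SD 0.5.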

SGCB cell-surface expression functional score (log10), by site and new letter:
S193: L 0.22; Y -0.19; T -0.16; A 0.18; R 0.17; E 1.32; W -1.15; F 0.83; G 0.24; H 1.59; I 0.78; M -0.52; N 0.79; C 0.3; K 0.33; P -0.22; V 0.52
S204: P -0.83; F -0.03; C -0.16; T -0.17; Y -0.38; A -0.04
E206: L -0.27; N 0.66; V 0.45; R -0.66; W 0.91; A 1.04; F 0.19; T 0.4; Y -0.12; C -0.71; K -0.41; Q -0.93; D 0.33; G -0.37; H 0.42; S 0.16; I -0.47; M 1.59; P -0.42
K196: A 0.53; F -0.74; Q 0.02; E -0.37; R 0.33; I -0.46; G -0.43; S -0.1; D -2.29; H 1.37; V -0.07; P -0.01; M 0.21; L -0.57; T -0.64; W -0.69; Y -1.19; C -0.14; N -0.02
Q201: S -0.35; T -0.09; F 0.62; D -0.56; Y -0.31; L -0.33; P -0.23; V 0.47; K 0.07; G 0.18; H 0.31; C 0.43; M 1.02; W -0.32; R 0.39; A 0.62; I 0.46; N -0.7; E 0.21
S197: Q 0.43; G -0.19; N -0.61; W 0.4; Y -1.16; D -0.76; E -0.43; R -0.6; I -0.04; T -0.2; V 1.76; M -1.08; L 0.24; F -2.04; K -0.3; A -0.6; H -0.72; P -2.03; C 0.14
K202: Y -0.69; W -0.14; G -0.02; A -0.2; I -0.27; R 0.09; P -0.97; L 0.04; D -1.97; V -0.17; H -1.29; C -0.1; M 0.2; F -1.04; S 0.02; E -0.96; T 0.12; N -0.53; Q 0.17
V200: H -2.51; N -3.23; L -0.58; T -2.11; F -1.83; E -2.93; Y -1.16; D -1.23; C -1.14; P -1.16; A -0.04; M -0.63; K -2.94; G -1.65; S -1.59; W -1.75; Q -0.73; R -1.87; I 0.17
V195: I 0.09; L -0.39; M -0.5; W 0.45; A 0.11; Q -1.76; F -1.74; N -1.73; K -1.88; G -1.83; C 0.64; Y -2.58; R -1.37; P -1.1; E -0.23; S -0.44; D -2.29; H -1.52; T -0.23
N199: Y -0.67; M -0.42; L -0.05; F 0.74; Q 0.86; W 1.05; R -0.3; P -1.11; G -0.38; E -0.68; C -0.28; T 0.07; V 0.22; A -0.02; S 0.26; H 0.18; I -0.28; D 0.38; K 0.02
P192: V -1.19; Q -2.22; H -1.15; F -0.5; R -1.04; W -1.19; D -1.49; T -1.46; N -1.53; K -1.31; G -0.57; Y -1.09; S -0.21; C -0.78; M -1.22; L -1.17; I -2.12; A -1.12; E -1.13
A203: Y -2.13; E -0.01; L 0; K -1.01; F -0.62; Q -0.5; W -0.3; H -1.81; P -0.92; V -0.13; D -1.81; S -1.01; M 0.612; G -1.02; I -0.24; C 0.38; R -1.46; T -0.59
T205: P -0.48; N -1.69; K -2.61; C -0.21; H -0.99; A -0.17; Q -2.06; Y -1.37; D -1.46; S -0.16; L -0.11; F -0.9; I -0.16; W -2.65; G -1.7; M -0.07; E -0.93; V -0.05; R -1.93
R207: C -0.91; S -1.22; L -0.39; F -1.57; I -1.03; Y -0.73; P -1.15; H -0.5; T -0.69; D -1.43; M 0.13; E -2.46; Q -0.74; K -0.81; G -1.44; A -1.05; W -0.06; N -0.12; V -0.64
L198: T -2.13; D -2.43; P -1.18; S -1.39; E -2.32; G -1.98; Y -1.67; R -2.21; C -0.88; M -0.81; K -1.58; H -0.37; I -0.47; V -0.55; W -0.6; A -1.81; N -1.95; Q -1.42; F 0.25
G194: M -1.78; I -1.66; E -0.09; C -0.15; P -0.58; S 0.34; A -0.67; D 0.64; H 0.27; V -1.31; Y -1.13; Q 0.38; R -0.07; W 0.23; L -1.02; F -0.14; K 0.01; T -0.71; N 0.05
I208: M -0.33; W -1.04; D -1.1; R -1.44; C -1.23; F -0.61; H -1.66; A -1.44; N -1.22; L 0.3; P -1.33; S -1.11; G -1.48; K -1.11; Q -1.96; Y -2.38; T -1.57; E -2.83; V 0.49
L191: P -1.47; Y -1.61; W -0.06; S -1.19; T -1.31; Q -1.1; M 0.28; R -1.37; N -2.28; V -0.49
T209: R -0.83; V 0.51; W -0.85; K -1.12; L -0.72; C -1.07; N -0.52; Q -0.66; I -0.34; S 0.1; A -0.04; Y -0.71; H -0.13; F -0.85; D -1.17; M 0.74; P -0.71
